For one assay, the target named is T1, Mouse B7-H3 (mouse, UniProt Q8VE98 29-244, limits assumed).
T1 construct: The construct used in SPR is not described; also called mouse B7-H3 (SPR antigen)
T1 sequence (looked up): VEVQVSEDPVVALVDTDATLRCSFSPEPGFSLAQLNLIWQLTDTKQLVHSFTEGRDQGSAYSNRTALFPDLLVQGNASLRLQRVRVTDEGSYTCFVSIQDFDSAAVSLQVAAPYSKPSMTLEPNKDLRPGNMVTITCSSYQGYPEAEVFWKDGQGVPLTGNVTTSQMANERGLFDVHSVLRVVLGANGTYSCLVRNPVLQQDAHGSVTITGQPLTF
The assay is described as follows: Surface Plasmon Resonance.

Another assay has as its target T2, Human B7-H3 (human, UniProt Q5ZPR3 29-461, limits assumed).
T2 construct: also called human B7-H3 (SPR antigen)
T2 sequence: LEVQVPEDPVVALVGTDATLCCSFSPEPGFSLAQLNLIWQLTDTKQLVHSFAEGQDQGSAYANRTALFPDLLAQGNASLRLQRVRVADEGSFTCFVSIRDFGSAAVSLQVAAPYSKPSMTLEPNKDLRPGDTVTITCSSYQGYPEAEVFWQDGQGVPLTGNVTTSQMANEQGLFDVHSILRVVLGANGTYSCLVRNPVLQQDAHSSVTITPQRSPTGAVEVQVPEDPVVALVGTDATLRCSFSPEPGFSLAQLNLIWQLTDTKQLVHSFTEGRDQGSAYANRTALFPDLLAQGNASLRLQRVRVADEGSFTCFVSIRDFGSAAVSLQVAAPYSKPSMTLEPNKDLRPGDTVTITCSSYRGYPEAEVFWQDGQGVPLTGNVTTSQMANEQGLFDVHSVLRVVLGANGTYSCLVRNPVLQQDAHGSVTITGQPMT
Put plainly: Surface Plasmon Resonance.

B1: monoclonal antibody 12B4 (antibody, IgG2b, V domains shown)
VH: QVQLQQPGAELVKPGASVKLSCKASGYTFTSYWMHWVKQRPGQGLEWIGMIHPNSGSTNYNEKFKSKATLTVDKSSSTAYMQLSSLTSEDSAVYYCARYYYGSSYAMDYWGQGTSVTVS
VL: QIVLTQSPAIMSASPGEKVTITCSASSSVSYMHWFQQKPGTSPKLWIYSTSNLASGVPARFSGSGSGTSYSLTISRMEAEDAATYYCQQRSSYPYTFGGGTKLEIKR
notes: Residue limits come from CLM-00006; also called mAb 12B4
The term Kd denotes the constant that tells how readily two partners part at equilibrium. Usually koff stands for the rate constant with which the complex falls apart. One may read the kon as a measure of how fast the partners come together. The low end stands for slower complex formation, the high end for faster complex formation. For B1, in the assay with Mouse B7-H3, the Kd is 15.4 nM, the koff is 0.0184 s⁻¹ and the kon came out at 1.19e+06 M⁻¹ s⁻¹. In the assay with Human B7-H3, this molecule had a Kd of 8.23 nM, a koff of 0.00509 s⁻¹ and a kon of 618000 M⁻¹ s⁻¹.

B2: monoclonal antibody 8B12 (antibody, IgG3, V domains shown)
VH: QVQLQQPGAELVKPGASVKMSCKASGYTFTSYWITWVKQRPGQGLEWIGDIYPGSGSTNYNEKFKSKATLTVDTSSSTAYMQLSSLTSEDSAVYYCARGGTRFSPFAYWGQGTLVTVSA
VL: DVLMTQTPLSLPVSLGDQASISCRSSQSIVHSNGNTYLEWYLQKPGQSPKLLIYKVSNRFSGVPDRFSGSGSGTDFTLKISRVEAEDLGVYYCFQGSHVPWTFGGGTKLEIKR
notes: Residue limits come from CLM-00006; also called mAb 8B12
In the assay with Mouse B7-H3, B2 yielded a Kd of 4.01 nM, a koff of 0.00237 s⁻¹ and a kon of 592000 M⁻¹ s⁻¹. In the assay with Human B7-H3, this molecule came in with a dissociation constant Kd of 0.3 nM, a koff of 0.000459 s⁻¹ and a kon of 1.51e+06 M⁻¹ s⁻¹.

The record behind these values is US20220010018A1 (ALBERT EINSTEIN COLLEGE OF MEDICINE, published 2022).
